Assay results taken from US6555322 (FIBROGEN, dated 2003).

Tests used:
[1] = molecular target: T1, murine low density lipoprotein receptor-related protein (LRP) / α2-macroglobulin receptor, CTGF receptor on … (murine, UniProt Q91ZX7 20-4545); experiment: competition with 0.1 nM 125I-CTGF on BMS-2 cells
T1 construct: whole, on cells; they are fragments found by mass spectrometry, not the construct; In the cell the protein is cleaved into non-covalently joined α and β subunits (background statement); also called α2MR; LRP/α2MR

[2] = molecular target: human low density lipoprotein receptor-related protein (LRP) / α2-macroglobulin receptor, CTGF receptor on … (human, UniProt Q07954 20-4544); experiment: cell-based or functional assay
[3] = molecular target: T2, CTGF receptor (LRP), cells not named; experiment: equilibrium binding of 125I-rhCTGF to other cells with a single class of sites
T2 construct: whole, on cells; 'other cells examined'); also called cross-linked complex; 620 kDa protein

[4] = molecular target: T1, murine low density lipoprotein …; experiment: equilibrium binding of 125I-rhCTGF to cells (FIG. 2, BMS2), non-linear regression; low affinity site
[5] = molecular target: high affinity binding site for CTGF on cells; experiment: equilibrium binding of 125I-rhCTGF to cells (FIG. 2, BMS2), non-linear regression; high affinity site
[6] = molecular target: T2, CTGF receptor (LRP), cells not named; experiment: 200 pM iodinated CTGF with 0-6.5 nM unlabeled CTGF on cells, S-SMCC cross-linking, densitometry of the complex bands

T1 sequence (Q91ZX7 20-4545): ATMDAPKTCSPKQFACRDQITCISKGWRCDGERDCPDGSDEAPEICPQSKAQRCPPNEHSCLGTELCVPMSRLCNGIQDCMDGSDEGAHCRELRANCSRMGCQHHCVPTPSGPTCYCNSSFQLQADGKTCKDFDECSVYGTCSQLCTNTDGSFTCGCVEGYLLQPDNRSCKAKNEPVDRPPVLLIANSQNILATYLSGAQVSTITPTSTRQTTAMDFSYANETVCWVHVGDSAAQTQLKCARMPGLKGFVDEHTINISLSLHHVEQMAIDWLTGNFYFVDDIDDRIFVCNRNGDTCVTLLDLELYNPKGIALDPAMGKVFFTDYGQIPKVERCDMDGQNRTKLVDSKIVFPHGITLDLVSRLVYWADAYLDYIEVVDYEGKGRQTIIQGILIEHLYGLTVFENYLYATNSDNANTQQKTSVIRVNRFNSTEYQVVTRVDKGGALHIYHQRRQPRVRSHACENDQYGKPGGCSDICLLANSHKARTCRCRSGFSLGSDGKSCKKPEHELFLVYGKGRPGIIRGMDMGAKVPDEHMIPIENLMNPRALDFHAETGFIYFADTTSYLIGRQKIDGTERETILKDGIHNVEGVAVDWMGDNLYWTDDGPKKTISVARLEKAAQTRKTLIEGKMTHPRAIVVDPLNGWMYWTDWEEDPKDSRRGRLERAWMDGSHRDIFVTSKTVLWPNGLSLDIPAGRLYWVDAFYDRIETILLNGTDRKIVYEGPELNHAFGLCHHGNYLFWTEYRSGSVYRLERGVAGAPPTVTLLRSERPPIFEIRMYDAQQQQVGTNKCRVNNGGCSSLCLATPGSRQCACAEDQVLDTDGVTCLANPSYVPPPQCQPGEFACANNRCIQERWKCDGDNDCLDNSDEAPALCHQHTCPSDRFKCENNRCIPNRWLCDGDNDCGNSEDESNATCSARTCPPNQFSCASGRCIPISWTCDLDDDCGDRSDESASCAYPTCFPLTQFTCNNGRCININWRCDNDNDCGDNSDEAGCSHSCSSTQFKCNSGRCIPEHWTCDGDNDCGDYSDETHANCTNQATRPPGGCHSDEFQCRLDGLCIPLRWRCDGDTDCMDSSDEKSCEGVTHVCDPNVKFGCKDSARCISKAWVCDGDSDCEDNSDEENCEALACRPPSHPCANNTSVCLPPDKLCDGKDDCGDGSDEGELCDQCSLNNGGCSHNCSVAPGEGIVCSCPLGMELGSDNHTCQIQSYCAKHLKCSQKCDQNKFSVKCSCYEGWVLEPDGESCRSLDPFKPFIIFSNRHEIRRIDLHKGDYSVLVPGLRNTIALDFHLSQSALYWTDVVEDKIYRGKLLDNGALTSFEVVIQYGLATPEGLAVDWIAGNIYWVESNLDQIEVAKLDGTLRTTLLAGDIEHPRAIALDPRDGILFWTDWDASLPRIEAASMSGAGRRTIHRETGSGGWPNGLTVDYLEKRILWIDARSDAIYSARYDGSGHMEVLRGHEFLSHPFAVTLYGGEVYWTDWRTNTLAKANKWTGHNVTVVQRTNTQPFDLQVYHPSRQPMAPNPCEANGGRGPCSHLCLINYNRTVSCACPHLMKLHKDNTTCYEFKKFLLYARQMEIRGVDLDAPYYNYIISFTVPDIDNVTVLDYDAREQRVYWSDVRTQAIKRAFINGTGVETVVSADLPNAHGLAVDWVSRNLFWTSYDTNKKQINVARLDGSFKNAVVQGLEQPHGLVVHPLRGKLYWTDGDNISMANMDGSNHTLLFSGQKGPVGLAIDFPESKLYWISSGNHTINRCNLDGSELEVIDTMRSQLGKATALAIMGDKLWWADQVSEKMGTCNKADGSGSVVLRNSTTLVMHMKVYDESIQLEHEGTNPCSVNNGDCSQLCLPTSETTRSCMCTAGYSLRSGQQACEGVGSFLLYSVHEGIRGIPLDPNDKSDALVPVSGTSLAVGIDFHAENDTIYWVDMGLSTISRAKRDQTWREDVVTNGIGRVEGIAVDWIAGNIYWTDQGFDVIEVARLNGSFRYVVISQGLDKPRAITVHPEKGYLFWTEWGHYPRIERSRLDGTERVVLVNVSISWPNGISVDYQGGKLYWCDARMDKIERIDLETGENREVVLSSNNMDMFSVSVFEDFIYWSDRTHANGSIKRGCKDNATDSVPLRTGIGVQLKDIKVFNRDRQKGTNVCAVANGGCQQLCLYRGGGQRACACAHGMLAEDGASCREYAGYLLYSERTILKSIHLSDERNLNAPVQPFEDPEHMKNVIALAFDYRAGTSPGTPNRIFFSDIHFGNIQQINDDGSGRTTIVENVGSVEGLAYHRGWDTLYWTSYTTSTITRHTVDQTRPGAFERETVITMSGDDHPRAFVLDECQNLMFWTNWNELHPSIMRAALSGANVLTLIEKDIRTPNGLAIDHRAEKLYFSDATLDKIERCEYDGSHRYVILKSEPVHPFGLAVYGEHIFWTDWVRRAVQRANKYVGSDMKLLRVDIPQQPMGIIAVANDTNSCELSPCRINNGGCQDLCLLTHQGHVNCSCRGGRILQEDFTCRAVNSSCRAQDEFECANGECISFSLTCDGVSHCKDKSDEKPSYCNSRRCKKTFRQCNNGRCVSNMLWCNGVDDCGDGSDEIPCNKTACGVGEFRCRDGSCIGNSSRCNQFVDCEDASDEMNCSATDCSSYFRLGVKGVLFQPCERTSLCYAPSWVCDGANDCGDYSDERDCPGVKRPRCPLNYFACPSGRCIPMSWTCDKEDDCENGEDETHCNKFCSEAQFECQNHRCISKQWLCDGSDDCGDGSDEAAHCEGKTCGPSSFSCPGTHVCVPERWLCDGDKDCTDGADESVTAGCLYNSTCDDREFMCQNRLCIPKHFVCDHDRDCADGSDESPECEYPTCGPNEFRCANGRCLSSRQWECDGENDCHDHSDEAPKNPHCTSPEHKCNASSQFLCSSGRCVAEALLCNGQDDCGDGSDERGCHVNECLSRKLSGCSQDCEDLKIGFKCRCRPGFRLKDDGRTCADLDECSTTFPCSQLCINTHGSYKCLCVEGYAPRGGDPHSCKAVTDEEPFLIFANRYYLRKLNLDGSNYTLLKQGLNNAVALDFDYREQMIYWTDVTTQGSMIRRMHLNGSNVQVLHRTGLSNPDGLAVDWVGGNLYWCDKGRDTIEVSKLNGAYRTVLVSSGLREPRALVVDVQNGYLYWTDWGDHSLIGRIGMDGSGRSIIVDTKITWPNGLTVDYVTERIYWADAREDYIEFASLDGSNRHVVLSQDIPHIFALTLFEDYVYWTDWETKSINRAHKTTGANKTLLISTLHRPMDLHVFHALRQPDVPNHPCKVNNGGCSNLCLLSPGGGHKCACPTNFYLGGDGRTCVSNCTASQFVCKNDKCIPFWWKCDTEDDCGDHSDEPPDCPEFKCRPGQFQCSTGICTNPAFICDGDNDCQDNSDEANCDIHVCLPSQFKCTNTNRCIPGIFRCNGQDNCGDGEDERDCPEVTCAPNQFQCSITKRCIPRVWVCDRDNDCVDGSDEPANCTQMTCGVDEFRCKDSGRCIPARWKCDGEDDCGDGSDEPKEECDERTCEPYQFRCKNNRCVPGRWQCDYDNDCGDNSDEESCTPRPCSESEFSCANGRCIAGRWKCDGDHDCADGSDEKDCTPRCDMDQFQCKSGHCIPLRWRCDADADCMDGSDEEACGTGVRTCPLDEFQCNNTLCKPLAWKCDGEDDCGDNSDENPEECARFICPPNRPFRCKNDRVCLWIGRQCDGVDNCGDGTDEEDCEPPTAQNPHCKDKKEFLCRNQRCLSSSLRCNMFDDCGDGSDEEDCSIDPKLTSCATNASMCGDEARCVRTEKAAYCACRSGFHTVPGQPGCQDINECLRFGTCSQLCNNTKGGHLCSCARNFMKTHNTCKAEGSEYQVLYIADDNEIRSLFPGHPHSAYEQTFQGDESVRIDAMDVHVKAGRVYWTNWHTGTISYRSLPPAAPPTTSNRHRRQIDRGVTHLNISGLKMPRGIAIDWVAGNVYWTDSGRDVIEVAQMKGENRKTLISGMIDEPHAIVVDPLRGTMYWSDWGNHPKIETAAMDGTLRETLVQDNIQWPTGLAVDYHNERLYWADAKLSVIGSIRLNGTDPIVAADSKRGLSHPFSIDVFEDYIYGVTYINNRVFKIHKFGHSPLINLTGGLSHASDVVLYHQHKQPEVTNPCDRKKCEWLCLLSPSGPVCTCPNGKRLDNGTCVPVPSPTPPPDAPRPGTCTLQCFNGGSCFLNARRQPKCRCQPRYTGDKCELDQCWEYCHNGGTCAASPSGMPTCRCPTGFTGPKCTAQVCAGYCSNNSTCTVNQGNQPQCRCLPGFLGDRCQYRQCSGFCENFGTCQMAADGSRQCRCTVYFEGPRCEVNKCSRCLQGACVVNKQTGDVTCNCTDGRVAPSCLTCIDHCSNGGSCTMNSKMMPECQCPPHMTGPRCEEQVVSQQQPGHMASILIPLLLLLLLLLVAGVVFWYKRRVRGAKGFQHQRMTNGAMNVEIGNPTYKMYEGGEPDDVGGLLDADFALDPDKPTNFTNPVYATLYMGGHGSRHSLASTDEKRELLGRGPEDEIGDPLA

B1: lipoprotein lipase purified from bovine milk (enzyme, UniProt P11151 29-478, looked up)
chain: DRITGGKDFRDIESKFALRTPEDTAEDTCHLIPGVTESVANCHFNHSSKTFVVIHGWTVTGMYESWVPKLVAALYKREPDSNVIVVDWLSRAQQHYPVSAGYTKLVGQDVAKFMNWMADEFNYPLGNVHLLGYSLGAHAAGIAGSLTNKKVNRITGLDPAGPNFEYAEAPSRLSPDDADFVDVLHTFTRGSPGRSIGIQKPVGHVDIYPNGGTFQPGCNIGEALRVIAERGLGDVDQLVKCSHERSVHLFIDSLLNEENPSKAYRCNSKEAFEKGLCLSCRKNRCNNMGYEINKVRAKRSSKMYLKTRSQMPYKVFHYQVKIHFSGTESNTYTNQAFEISLYGTVAESENIPFTLPEVSTNKTYSFLLYTEVDIGELLMLKLKWISDSYFSWSNWWSSPGFDIGKIRVKAGETQKKVIFCSREKMSYLQKGKSPVIFVKCHDKSLNRKSG
notes: also called LpL
B1: binds [1].

B2: recombinant human connective tissue growth factor (rhCTGF) (ligand, UniProt P29279 27-349, looked up)
chain: QNCSGPCRCPDEPAPRCPAGVSLVLDGCGCCRVCAKQLGELCTERDPCDPHKGLFCHFGSPANRKIGVCTAKDGAPCIFGGTVYRSGESFQSSCKYQCTCLDGAVGCMPLCSMDVRLPSPDCPFPRRVKLPGKCCEEWVCDEPKDQTVVGPALAAYRLEDTFGPDPTMIRANCLVQTTEWSACSKTCGMGISTRVTNDNASCRLEKQSRLCMVRPCEADLEENIKKGKKCIRTPKISKPIKFELSGCTSMKTYRAKFCGVCTDGRCCTPHRTTTLPVEFKCPDGEVMKKNMMFIKTCACHYNCPGDNDIFESLYYRKMYGDMA
modifications: radioiodinated (125I; Iodobeads or chloramine-T) when used as tracer; unlabeled when used as competitor
notes: mature; Form set to mature because the protein was secreted and purified from conditioned medium
With B2 the “degradation of 125I-CTGF, control MG63 cells against cells treated with TGF-β for 48 hours” value [2] was ≥ 3 fold, the Kd [3] was ~1 nM and the Kd [4] was ~1 nM. The Kd [5] was ~0.137 nM and the IC50 [6] was ~1 nM.
